Data reported in IntAct's records for PubMed 33965375.

Target: spike_sars2 S (UniProt P0DTC2)

Question: How did the “effect of a mutation on the interaction” value turn out when “Endoplasmic reticulum chaperone BiP (Homo sapiens), P11021 R197H” was run?
Answer: Its value is “decreasing interaction strength”.

Question: For “Endoplasmic reticulum chaperone BiP (Homo sapiens), P11021 G227D”, which “effect of a mutation on the interaction” value is on record?
Answer: The value was “decreasing interaction strength”.
